Results from article PMC4031514, “Lysine 27 Ubiquitination of the Mitochondrial Transport Protein Miro Is Dependent on Serine 65 of the Parkin Ubiquitin Ligase*” (The Journal of Biological Chemistry, 2014).

Target: T1, GFP-TRAK1 (mouse, UniProt Q6PD31 1-939)
T1 construct: TRAK1, mouse; also called kinesin adaptor TRAK1
T1 sequence (looked up): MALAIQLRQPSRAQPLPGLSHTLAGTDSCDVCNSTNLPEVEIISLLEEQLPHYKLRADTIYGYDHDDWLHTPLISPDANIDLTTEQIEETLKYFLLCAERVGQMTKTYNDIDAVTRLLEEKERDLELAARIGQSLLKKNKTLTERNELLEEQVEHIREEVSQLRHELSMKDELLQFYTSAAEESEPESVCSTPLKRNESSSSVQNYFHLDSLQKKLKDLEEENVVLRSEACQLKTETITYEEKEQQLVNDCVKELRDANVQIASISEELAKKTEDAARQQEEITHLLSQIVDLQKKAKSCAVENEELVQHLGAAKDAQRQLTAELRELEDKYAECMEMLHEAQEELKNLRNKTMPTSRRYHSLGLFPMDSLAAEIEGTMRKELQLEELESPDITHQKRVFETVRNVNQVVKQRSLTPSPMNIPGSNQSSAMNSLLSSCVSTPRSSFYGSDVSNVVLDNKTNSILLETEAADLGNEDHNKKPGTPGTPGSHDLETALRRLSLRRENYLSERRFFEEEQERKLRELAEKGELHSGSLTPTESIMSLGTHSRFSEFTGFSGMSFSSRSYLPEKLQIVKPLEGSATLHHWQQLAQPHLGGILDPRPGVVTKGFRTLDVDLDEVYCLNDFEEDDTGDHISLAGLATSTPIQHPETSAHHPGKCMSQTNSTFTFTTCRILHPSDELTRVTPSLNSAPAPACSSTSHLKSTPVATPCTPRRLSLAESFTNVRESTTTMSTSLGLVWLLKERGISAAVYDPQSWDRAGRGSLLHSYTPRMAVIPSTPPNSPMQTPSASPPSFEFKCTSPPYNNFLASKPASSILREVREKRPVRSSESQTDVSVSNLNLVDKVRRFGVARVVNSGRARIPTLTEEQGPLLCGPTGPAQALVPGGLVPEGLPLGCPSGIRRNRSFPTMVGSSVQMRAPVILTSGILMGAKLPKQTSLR
Assay: co-IP; coimmunopurification of mycMiro1 and GFP-TRAK1 from transfected cells, untreated or treated with 10 uM FCCP, 1 h; GFP-TRAP beads per the methods; lysis in 50 mM Tris pH 7.4, 150 mM NaCl, 1 mM EDTA, 0.5% Triton X-100; western blot, densitometry
Conditions: partners not purified

co-IP with FCCP relative to untreated control (1): 0.94 fold of control
B1: Myc-tagged Miro1 (natural protein, UniProt Q8IXI2 1-618, looked up)
chain: MKKDVRILLVGEPRVGKTSLIMSLVSEEFPEEVPPRAEEITIPADVTPERVPTHIVDYSEAEQSDEQLHQEISQANVICIVYAVNNKHSIDKVTSRWIPLINERTDKDSRLPLILVGNKSDLVEYSSMETILPIMNQYTEIETCVECSAKNLKNISELFYYAQKAVLHPTGPLYCPEEKEMKPACIKALTRIFKISDQDNDGTLNDAELNFFQRICFNTPLAPQALEDVKNVVRKHISDGVADSGLTLKGFLFLHTLFIQRGRHETTWTVLRRFGYDDDLDLTPEYLFPLLKIPPDCTTELNHHAYLFLQSTFDKHDLDRDCALSPDELKDLFKVFPYIPWGPDVNNTVCTNERGWITYQGFLSQWTLTTYLDVQRCLEYLGYLGYSILTEQESQASAVTVTRDKKIDLQKKQTQRNVFRCNVIGVKNCGKSGVLQALLGRNLMRQKKIREDHKSYYAINTVYVYGQEKYLLLHDISESEFLTEAEIICDVVCLVYDVSNPKSFEYCARIFKQHFMDSRIPCLIVAAKSDLHEVKQEYSISPTDFCRKHKMPPPQAFTCNTADAPSKDIFVKLTTMAMYPHVTQADLKSSTFWLRASFGATVFAVLGFAMYKALLKQR
notes: Miro1, outer mitochondrial membrane GTPase; also called mycMiro1
